In paper PMC5594205 (Molecular Cell, 2017):
Like-named read-outs stand apart in the source and are kept apart here.

B1: recombinant human Rad51 (natural protein, UniProt Q06609 1-339, looked up)
chain: MAMQMQLEANADTSVEEESFGPQPISRLEQCGINANDVKKLEEAGFHTVEAVAYAPKKELINIKGISEAKADKILAEAAKLVPMGFTTATEFHQRRSEIIQITTGSKELDKLLQGGIETGSITEMFGEFRTGKTQICHTLAVTCQLPIDRGGGEGKAMYIDTEGTFRPERLLAVAERYGLSGSDVLDNVAYARAFNTDHQTQLLYQASAMMVESRYALLIVDSATALYRTDYSGRGELSARQMHLARFLRMLLRLADEFGVAVVITNQVVAQVDGAAMFAADPKKPIGGNIIAHASTTRLYLRKGRGETRICKIYDSPCLPEAEAMFAINADGVGDAKD

Assays:
Test in all cases: pull-down
[1] = target: recombinant human Pol α-primase complex (full-length) (human, UniProt P09884 1-1462; Q14181 1-598; P49642 1-420; P49643 1-509)
[2] = target: B1
[3] = target: B1; remark: listed apart in the source

recombinant human Pol α-primase complex (full-length), sequence (Q14181 whole entry, chain 2 of 3): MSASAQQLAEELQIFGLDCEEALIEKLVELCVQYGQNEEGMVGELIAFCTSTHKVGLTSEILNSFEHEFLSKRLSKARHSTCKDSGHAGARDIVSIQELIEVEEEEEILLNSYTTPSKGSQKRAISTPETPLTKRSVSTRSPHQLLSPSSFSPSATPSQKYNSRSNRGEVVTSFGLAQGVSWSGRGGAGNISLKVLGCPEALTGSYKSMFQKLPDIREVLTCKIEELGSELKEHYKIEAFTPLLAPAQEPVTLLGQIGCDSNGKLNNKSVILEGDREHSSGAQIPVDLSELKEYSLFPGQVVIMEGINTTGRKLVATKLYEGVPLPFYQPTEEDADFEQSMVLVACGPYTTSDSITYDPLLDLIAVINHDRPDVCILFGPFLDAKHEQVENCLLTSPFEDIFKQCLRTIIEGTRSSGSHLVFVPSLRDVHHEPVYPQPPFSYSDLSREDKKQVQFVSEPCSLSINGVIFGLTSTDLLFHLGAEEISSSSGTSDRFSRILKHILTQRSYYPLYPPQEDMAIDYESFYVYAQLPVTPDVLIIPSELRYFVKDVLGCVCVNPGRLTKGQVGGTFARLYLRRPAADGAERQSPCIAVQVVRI
recombinant human Pol α-primase complex (full-length), sequence (P49642 whole entry, chain 3 of 3): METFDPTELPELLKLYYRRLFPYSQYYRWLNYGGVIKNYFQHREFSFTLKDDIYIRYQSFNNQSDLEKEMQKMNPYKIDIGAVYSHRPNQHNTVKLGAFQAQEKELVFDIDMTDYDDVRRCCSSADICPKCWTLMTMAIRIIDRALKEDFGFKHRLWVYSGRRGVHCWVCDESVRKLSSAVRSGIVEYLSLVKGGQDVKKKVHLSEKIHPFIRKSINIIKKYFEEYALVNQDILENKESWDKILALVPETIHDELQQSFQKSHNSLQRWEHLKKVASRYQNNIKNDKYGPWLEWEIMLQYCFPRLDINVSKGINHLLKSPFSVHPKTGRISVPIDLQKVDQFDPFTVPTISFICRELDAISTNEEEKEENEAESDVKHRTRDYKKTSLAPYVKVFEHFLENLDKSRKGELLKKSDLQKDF
recombinant human Pol α-primase complex (full-length), sequence (P49643 whole entry, chain 4 of 3): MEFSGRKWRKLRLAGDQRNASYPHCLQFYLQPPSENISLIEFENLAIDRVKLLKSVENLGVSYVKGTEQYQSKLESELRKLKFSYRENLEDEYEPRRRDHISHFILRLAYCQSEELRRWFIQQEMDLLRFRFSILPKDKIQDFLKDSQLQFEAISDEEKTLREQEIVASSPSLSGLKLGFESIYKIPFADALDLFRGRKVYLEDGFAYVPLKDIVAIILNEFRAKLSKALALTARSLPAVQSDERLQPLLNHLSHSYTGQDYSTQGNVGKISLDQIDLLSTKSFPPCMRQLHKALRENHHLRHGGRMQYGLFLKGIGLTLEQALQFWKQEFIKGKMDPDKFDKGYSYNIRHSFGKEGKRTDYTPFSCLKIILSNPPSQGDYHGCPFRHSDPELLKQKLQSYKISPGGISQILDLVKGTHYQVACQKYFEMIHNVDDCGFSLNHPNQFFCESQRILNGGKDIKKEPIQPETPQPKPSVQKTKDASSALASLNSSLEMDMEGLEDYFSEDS

B1
binding result [1]: binds

LLGFHTASGKKVKIAKESLDKVKNLFDE [Brca2 BRC4 peptide]
binding result [2]: binds

B2: His6-MBP-Polymerase α (1-109) (domain or fragment, human, UniProt P09884 1-109, looked up)
chain: MAPVHGDDSLSDSGSFVSSRARREKKSKKGRQEALERLKKAKAGEKYKYEVEDFTGVYEEVDEEQYSKLVQARQDDDWIVDDDGIGYVEDGREIFDDDLEDDALDADEK
binding result [3]: binds
